Consider 20 sequences from the supplement of paper PMC9170038.

This series has as its system K4 kissing-loop RNA reporter. The series is described as follows: apparent KD of K4 kissing-loop reporter; higher = weaker reporter binding. As to conditions: Eterna round: R107. As for the experimental part: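 RNA-MaP round R107: designed RNA switches with theophylline, tryptophan, arginine or FMN aptamers are transcribed on-chip within common flanks. They are titrated with a labelled K4 kissing-loop RNA reporter in RNA-MaP buffer (100 mM Tris pH 7.5, 80 mM KCl, 4 mM MgCl2), without ligand or with the indicated ligand. Median apparent KD per design.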

Where [1] appears, read: input ligand: theophylline 20 uM.
Setting [2] is: input ligand: tryptophan 2.4 mM.
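Further: bound reporter read as fluorescence of individual clusters on recovered sequencing chips by microscopy, with normalized cluster intensities fitted with a binding model.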

With “CUUAUGGCGUUUGGAAGGAGCGGCUCAUCACGAGGACCGGUACGGCCGCCACUCGAGAGAGCAUAAGAAAGUGAUGUUUUCGGUU [theeternabot_sameState_KL_Trp_A_44]”, the “apparent KD of K4 kissing-loop reporter” value stood at 517 nM (input ligand: FMN 200 uM); 415 nM (input ligand: arginine 13.2 mM); 496 nM (input ligand: none); 395 nM under setting [1]; 314 nM under setting [2].

For “CUUCGAUUAACGGAUACCAGUCACUUGGGAGCCACACACAAGUGAGUGAUGUUCACUUGUGACCCUUGGCAGCCGUUAGUCGAAG [#05 K4 Theophylline B Exclusion]”, the “apparent KD of K4 kissing-loop reporter” value runs as follows: (input ligand: FMN 200 uM) 106 nM; (input ligand: arginine 13.2 mM) 85 nM; (input ligand: none) 99.4 nM; under setting [1], 157 nM; under setting [2], 97.9 nM.

As to “CUUGGAAGGACGGCCGCCACUGGGCAGUGAUGUUGCCCGAGUUGGUAACGCAGUGAUGUUGCGUCCAGGACCGGGUCCUAGGAAU [Exclusion Tryptophan B GF 25]”, the “apparent KD of K4 kissing-loop reporter” value came out at 141 nM (input ligand: FMN 200 uM); 113 nM (input ligand: arginine 13.2 mM); 112 nM (input ligand: none); 106 nM under setting [1]; 139 nM under setting [2].

Consider “GAAUAAUAAGUAGCAGUGAUGUUGCUACUACGAGGACCGGUACGGCCGCCACUCGAAUACGAGUGGACACUGCUACUACCACUCG [(H1)-(H2)-(Trp1)-(Trp2)-(T)'-(H)'-(T)''_Design8]”, for which the “apparent KD of K4 kissing-loop reporter” value runs as follows: (input ligand: FMN 200 uM) 121 nM; (input ligand: arginine 13.2 mM) 118 nM; (input ligand: none) 121 nM; under setting [1], 122 nM; under setting [2], 170 nM.

Turning to “GAAUCAUGUAGAAGGAGCGUUAGAAGUUAUAGGGAUGAGUGAUGUUUGUGUUAGUAAAUCUGACAGGUAGGUCGCUACAGAAGGA [KL-SSArg B21 #analogue]”, the “apparent KD of K4 kissing-loop reporter” value runs as follows: (input ligand: FMN 200 uM) 712 nM; (input ligand: arginine 13.2 mM) 258 nM; (input ligand: none) 607 nM; under setting [1], 132 nM; under setting [2], 308 nM.

With “GAAUUAUGUAGAAGGAGCGUCAGAAGGUAUAGGUGCGAGUGAUGUUUGGACCUGUUAAUUUGACAGGUAGGUCGCUACAGAAGGA [KL-SSArg B20 #analogue]”, the “apparent KD of K4 kissing-loop reporter” value reads like this: (input ligand: FMN 200 uM) 533 nM; (input ligand: arginine 13.2 mM) 291 nM; (input ligand: none) 448 nM; under setting [1], 304 nM; under setting [2], 320 nM.

Consider “GAGAUGCACCAGUCUUAACGUGACUUAUCCCGAGGACCGGUACGGCCGCCACUCGCGUACUACUAGUGAUGUUGGUCAGUAUGAG [theeternabot_sameState_KL_Trp_A_26]”, for which the “apparent KD of K4 kissing-loop reporter” value runs as follows: (input ligand: FMN 200 uM) 244 nM; (input ligand: arginine 13.2 mM) 185 nM; (input ligand: none) 215 nM; under setting [1], 223 nM; under setting [2], 235 nM.

Take “GAGCCAGAGGUUGCUGCGGGUUUCAGAGAUACCAGCCGUAUUGUAGGCCCUUGGCAGCUCGAGUGAUGUUCGAGCCGCCUCUGGC [Eredorxela]”: the “apparent KD of K4 kissing-loop reporter” value reads like this: (input ligand: FMN 200 uM) 111 nM; (input ligand: arginine 13.2 mM) 102 nM; (input ligand: none) 120 nM; under setting [1], 129 nM; under setting [2], 109 nM.

Take “GAGGAUAGCGGAAGGAGCGAGUAAUGGAGUGAUGUUCCAAUCAAUAAAACACGAUAGAGUGCUCAGGUAGGUCGCCGUGGUGGUU [Exclusion Argiie B GF 13]”: the “apparent KD of K4 kissing-loop reporter” value reads like this: (input ligand: FMN 200 uM) 124 nM; (input ligand: arginine 13.2 mM) 143 nM; (input ligand: none) 165 nM; under setting [1], 277 nM; under setting [2], 111 nM.

As for “GAGGUGCUGAUGCGGUGGCCGGUGGUCGUGCGAGGACCGGUACGGCCGCCACUCGCAUGAGUGAUGUUCAUGUGUCGUCGUCGUC [whbob_EX_Tryp_A_t3]”, the “apparent KD of K4 kissing-loop reporter” value came out at 172 nM (input ligand: FMN 200 uM); 104 nM (input ligand: arginine 13.2 mM); 132 nM (input ligand: none); 117 nM under setting [1]; 172 nM under setting [2].

Turning to “GAUAUAUAUAGAGGAUAUAGCAGGUGAUACAAGAAAGUGAGUGAUGUUUAUGUAGAUGAUGAUAUGUUAGAAGGCUAUAUAUAUC [radioactive7-modED1598]”, the “apparent KD of K4 kissing-loop reporter” value by setting is: (input ligand: FMN 200 uM) 844 nM; (input ligand: arginine 13.2 mM) 736 nM; (input ligand: none) 766 nM; under setting [1], 723 nM; under setting [2], 706 nM.

On to “GAUUAAUAAGAGGAUACCAGUACAAAUAAAGUACAUUAAUAGUAGAGUGAUGUUCUAAAGUACCCUUGGCAGCUUAGAGUAAGUU [ExTheophylB.A]”, for which the “apparent KD of K4 kissing-loop reporter” value runs as follows: (input ligand: FMN 200 uM) 119 nM; (input ligand: arginine 13.2 mM) 207 nM; (input ligand: none) 174 nM; under setting [1], 226 nM; under setting [2], 94.4 nM.

With “GAUUCAGUGAUGUUGGAAGGCGAGCGGGAUACCAGCCAAGACUCAGGCCCUUGGCAGCCCACAUAUCCCAGGUAGAUAGUCGCUC [Same State - Theophylline A (Freestyle 11)]”, the “apparent KD of K4 kissing-loop reporter” value reads like this: (input ligand: FMN 200 uM) 271 nM; (input ligand: arginine 13.2 mM) 265 nM; (input ligand: none) 254 nM; under setting [1], 293 nM; under setting [2], 270 nM.

Turning to “GCAGUGAUGUUGCACGAGUAGGCUGGAGUACGAGGACCGGUACGGCCGCCACUCGUACGAUAGUCGCUAAUUUAUGGAAUGGUGA [#08 K4 Tryptophan A Same State]”, the “apparent KD of K4 kissing-loop reporter” value by setting is: (input ligand: FMN 200 uM) 458 nM; (input ligand: arginine 13.2 mM) 381 nM; (input ligand: none) 551 nM; under setting [1], 286 nM; under setting [2], 419 nM.

As to “GCAGUGAUGUUGCACGAGUAGGCUGGAGUACGAGGACCGGUACGGCCGCCACUCGUACGGAAGUCGCUAAUUUAUGGAAUGGUGA [#06 K4 Tryptophan A Same State]”, the “apparent KD of K4 kissing-loop reporter” value came to 592 nM (input ligand: FMN 200 uM); 381 nM (input ligand: arginine 13.2 mM); 341 nM (input ligand: none); 413 nM under setting [1]; 436 nM under setting [2].

For the sequence “GCAUCCAUGUGAGGAUAUCGAGACGAGUGAUGUUCGGGCACCAGACAGGGAGACCUGUCAAUGGCUUGAGAAGGCACAUGGAUGC”, the “apparent KD of K4 kissing-loop reporter” value reads like this: (input ligand: FMN 200 uM) 231 nM; (input ligand: arginine 13.2 mM) 196 nM; (input ligand: none) 249 nM; under setting [1], 199 nM; under setting [2], 217 nM.

Take “GCAUCCUAGUCGGCCGCCACUGACAUGAGUGAUGUUCAUGUUCGUCAGUGAUGUUGACGUUGUUACAGGACCGGGACUAGGAUGC [KL-SSTryp-B8 Brourdwalk4 #Double KL]”: the “apparent KD of K4 kissing-loop reporter” value was 169 nM (input ligand: FMN 200 uM); 143 nM (input ligand: arginine 13.2 mM); 165 nM (input ligand: none); 150 nM under setting [1]; 119 nM under setting [2].

Regarding “GCAUGGGUGCUUGCACAAGUGAUGUUUGGGCGAGGACCGGUACGGCCGCCACUCGUACGUUUAGUUAAAAGACAUCAUGCGAGUC [theeternabot_exclusion_KL_Trp_A_11]”, the “apparent KD of K4 kissing-loop reporter” value is, setting by setting: (input ligand: FMN 200 uM) 291 nM; (input ligand: arginine 13.2 mM) 246 nM; (input ligand: none) 356 nM; under setting [1], 339 nM; under setting [2], 164 nM.

For “GCCAGAGCGCGAAGGAGCGCCCUGACAGGUUGCUGCCGUGGGCAGUGAUGUUGCUCAGUCCGGCAGGUAGGUCGCGUGCUCUGGC”, the “apparent KD of K4 kissing-loop reporter” value (input ligand: FMN 200 uM) worked out at 222 nM; the “apparent KD of K4 kissing-loop reporter” value (input ligand: arginine 13.2 mM) is 165 nM; the “apparent KD of K4 kissing-loop reporter” value (input ligand: none) was 193 nM; the “apparent KD of K4 kissing-loop reporter” value under setting [1] turned out to be 196 nM; the “apparent KD of K4 kissing-loop reporter” value under setting [2] is 174 nM.

In the case of “GCCAGUGAUGUUGGCAUUUCGAGCCAUGAAGGAGCGCACGGAAGUGCAGGUAGGUCGCAUGGUACUUAGGAUAUUACCCUAAGUA [Isterare]”, the “apparent KD of K4 kissing-loop reporter” value is 206 nM (input ligand: FMN 200 uM); 177 nM (input ligand: arginine 13.2 mM); 212 nM (input ligand: none); 200 nM under setting [1]; 161 nM under setting [2].
